Test results published in the RNAGym collection of RNA variant scans (doi:10.1073/pnas.2313332121).
Fewer inactive variants are shown than the library holds.

B1: TPR 5TU (parent)
chain: GGAUCUUCUCGAUCUAACAAAAAAGACAAAUCUGCCACAAAGCUUGAGAGCAUCUUCGGAUGCAGAGGCGGCAGCCUUCGGUGGCGCGAUAGCGCCAACGUUCUCAACUAUGACACGCAAAACGCGUGCUCCGUUGAAUGGAGUUUAUCAUG

Variants of: B1
Experiment: polymerase ribozyme fitness, log enrichment relative to wild type (log ratio); higher = more active; in vitro selection for triplet polymerase activity
Method in brief: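 One round of in vitro selection, in triplicate, was applied to PCR-built, transcribed mutant libraries of each subunit of a heterodimeric triplet polymerase ribozyme. The steps were annealing with a biotinylated primer, partner subunit and triplets, incubation frozen at −7 °C, gel excision of extended constructs, streptavidin-bead capture and RT-PCR. Fitness is the logarithm, base 2, of genotype enrichment over wild-type enrichment from inverse-variance-weighted replicate averages of Illumina-sequenced inputs and outputs, keeping genotypes with ≥10 input reads and ≥1 read per output.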

Row | Variant | polymerase ribozyme fitness (log ratio)
1 | A20U C72U C85A U134C A150C | ≤ -4.2
2 | A20G G25A A40U A47G G48C C85A A142G | ≤ -4.2
3 | A20U U55A A147C | -2.31
4 | A21C A23G A37C C95G | ≤ -4.2
5 | A20U C54A C96G C108G U109G C118G C132A G143A U148A C149U | ≤ -4.2
6 | A20U A49C G58C C87U | ≤ -4.2
7 | A20U A47C | -0.824
8 | A20U A47C C57U A64C G84C U148G | ≤ -4.2
9 | A20C U31G U53A U55G A115C | -2.82
10 | A20C U53A | -2.16
11 | A20U A29G A91C C93A G128U | ≤ -4.2
12 | A20U A29U U55A A66C A106U A138U | ≤ -4.2
13 | A20U A41U G48A A49G C96G A106G A107G U135G | ≤ -4.2
14 | A20U A23U A24U C51U A60G C85G | ≤ -4.2
15 | A20U A52G G58A C76G G81A G86A A122C | ≤ -4.2
16 | A20U C57A G84U | -3.17
17 | A20G A29C G46U C54U C96U C116A U148A | ≤ -4.2
18 | A20U U82G C93U | -2.36
19 | A20C C93G | -3.89
20 | A20C C93U | -1.41
21 | A20U A23C C35G G84A C125U | ≤ -4.2
22 | A20U U101A | -2.4
23 | A20G G59A | -0.551
24 | A20U G59U G136C G141U | -3.78

Row | Variant | polymerase ribozyme fitness (log ratio)
25 | A20U C96G A150U | 0.47
26 | A20U A49G A66C A73U C79U A106U A107C | ≤ -4.2
27 | A21C A52C C85U G117C | -0.924
28 | A20C C76G | ≤ -4.2
29 | A21C A23U A24U G92A A106G G133A | ≤ -4.2
30 | A20C U90G C99U G136C | ≤ -4.2
31 | A20U U53A A120G | -2.23
32 | A20C U82A A150G | -0.662
33 | A20C G65U U90G C93U C129A | ≤ -4.2
34 | A20C U130G U144C | -4.14
35 | A20G A52G G58U C87U | -0.805
36 | A20G A37G A106G A138C | -3.84
37 | A20U U55A G68U C85G C105U G124A G140C | ≤ -4.2
38 | A21C A26C A28C G70U A107C A147C | ≤ -4.2
39 | A20U A52C | -2.87
40 | A20U A29G G48C A49C G117A U134G A137C U139A | ≤ -4.2
41 | A20G G34C C38A C76U U90C C114U | ≤ -4.2
42 | A21C A41U C57U A119U U134A U144A | -4.17
43 | A20U G25C G141A | -4.03
44 | A20G A21U A26U A29U A39C A91G G94U A97G C99A C131A A142G | ≤ -4.2
45 | A20C G25U C51A U77G G94C A115U G140C | ≤ -4.2
46 | A20G G59A U77A C95U G117U C118G A122U | ≤ -4.2
47 | A20G A22U G141A | -1.8
48 | A20U U61G C87U C95U | -3.33

Row | Variant | polymerase ribozyme fitness (log ratio)
49 | A20G A23C U144G | ≤ -4.2
50 | A20U A28U G42C G86U C93A C114U | -4.17
51 | A20G A24U U111A A142U G143U | ≤ -4.2
52 | A20C G59A G81C G86C | -3.14
53 | A20U G71A C95A | ≤ -4.2
54 | A20G A91U | ≤ -4.2
55 | A20C G48C G62A | -2.35
56 | A20U C54A | -2.02
57 | A20G G70C C75U C93A C95U U109C | ≤ -4.2
58 | A20U C27A U31G A40G G42U C96G A97G | ≤ -4.2
59 | A20G A24G A40C A49C C85A | ≤ -4.2
60 | A20G C54G C96U | -2
61 | A20U U31C A41C C51A | -2.21
62 | A20U G46A C76A C87G G94C C105G U144A | ≤ -4.2
63 | A20U C32G A40G U55G | -4.19
64 | A20C U56A A107U | -2.71
65 | A20G C95A A110G | -3.46
66 | A20G C87U U148A | -3.21
67 | A20U G94A | -1.88
68 | A20C U55G C57U A120C | -0.73
69 | A20U C32U U56A A142U | -3.91
70 | A20U A23U A64C A91G A107G | ≤ -4.2
71 | A20G C36G G83A A91G A142G | ≤ -4.2
72 | A20U A21C U102A C125G | -3.5

Row | Variant | polymerase ribozyme fitness (log ratio)
73 | A20U U45A C118A | -3.82
74 | A20G C32G G86U C87A U109A | ≤ -4.2
75 | A20U A49G C85U A110G U148A | ≤ -4.2
76 | A20U A24C C54U C63U G65U G84A C132G U148A | ≤ -4.2
77 | A20U C57G C93U C123U | -2.57
78 | A20G A39G G50C C85A C93A C114G C125G | ≤ -4.2
79 | A21C A24U C38G C93U G117A | -2.15
80 | A20U G50A U55G C85U A91U A137G | ≤ -4.2
81 | A21C A24U C54G C85U A121C | -0.525
82 | A20C G25C G34U C54A A91G A119U A122U G124U C125G | ≤ -4.2
83 | A20U C57U | -2.23
84 | A20U C57A | -1.36
85 | A21C A41U G71A A98U G136U A147U U148C | ≤ -4.2
86 | A20U U45A C87G | -4.13
87 | A20U A37C A52G G124U | -2.09
88 | A20G A30U C95U | -3.5
89 | A20U C27U G42U A52C U55A C95G C96U | ≤ -4.2
90 | A20G A26U A39C G86C A150C | ≤ -4.2
91 | A20U C36G G70A | -4.1
92 | A21C A40U C93A | -1.84
93 | A20U A122U U144G | -0.756
94 | A20U C125A | -2.05
95 | A20U G50A G86U C96G | ≤ -4.2
96 | A20U G48A G50A C76G C96G U135G | ≤ -4.2

Row | Variant | polymerase ribozyme fitness (log ratio)
97 | A20U C54A A106C | -3.99
98 | A20G C35G C51A C85U C99U C129A U148A | ≤ -4.2
99 | A20U A22G C51A G92A C93A C132U | ≤ -4.2
100 | A20U A23G G50U G86A A110C C129G G140A | ≤ -4.2
101 | A20U C32G C57U A73G U82G G92A | ≤ -4.2
102 | A20U A24G A29C C38G G80C A89G C105U C116G | ≤ -4.2
103 | A20G A24U C85A C116A | -0.238
104 | A20U A23C A47C U55G G86U A91G | ≤ -4.2
105 | A20U A23C C35U C75U C103G G136A | ≤ -4.2
106 | A20G C27A A47G G92A | ≤ -4.2
107 | A21C A37U C76U C87U | -1.62
108 | A20G C27G G65U G81A G88A A138C G143U | ≤ -4.2
109 | A20U A22U C43A G84C C108G C116G | ≤ -4.2
110 | A20C C54U G86C U101C U104A | ≤ -4.2
111 | A20C U61A C63U C85U | -1.55
112 | A20C C85A A97U | -3.02
113 | A21C A30C A41C G59A C95U | ≤ -4.2
114 | A21C A30C A41U A64U C103G A115C A119C G128A G133U | ≤ -4.2
115 | A20U G42C C75A C105U C116U A120G G128A U146A | ≤ -4.2
116 | A20G A40C C72U G92A | -4.04
117 | A20G G34A C118G A121C | -3.83
118 | A20U A23G G88A C99G C149G | ≤ -4.2
119 | A20U U33A G83A G86A G100A C149U | ≤ -4.2
120 | A20G A22U G59A C93G A98G A137G U139G | ≤ -4.2

Row | Variant | polymerase ribozyme fitness (log ratio)
121 | A20U U53A | -2.36
122 | A20U A24G C32G U78A G83C | ≤ -4.2
123 | A20G C93A C132G U134G U148G | ≤ -4.2
124 | A20C G68C G141C | ≤ -4.2
125 | A20U A52G C75U G88A C103G A119C | ≤ -4.2
126 | A20G A40C A41G A49C C76G G88A C96U | ≤ -4.2
127 | A20U A41U U55A A66U G84A C116A | ≤ -4.2
128 | A20G A40U U77C | ≤ -4.2
129 | A20G A29U C51A A106C A113U | -4.2
130 | A20U G81C A147U | -0.168
131 | A20U C93U G126A | -1.5
132 | A20U U56A A64C A107G G126U | ≤ -4.2
133 | A20C U31G A40U | -0.279
134 | A20C U56A C93A C116A | -1.28
135 | A20U G86A C87G A91U C118A | ≤ -4.2
136 | A20U G46C G62U C75G G92A G140C | ≤ -4.2
137 | A20G A21C U31C C103A U144G | -1.73
138 | A20U G48A G68U G83C C103G A138G G143C | ≤ -4.2
139 | A20U C35A G92U A110U | ≤ -4.2
140 | A20C G46A C69G G94A | -2.22
141 | A20G C85U G94U C95G C125U | -3.59
142 | A20U A39U C51G A66C C93G U134A | ≤ -4.2
143 | A20U G48A A60G U139A A142C A147G | ≤ -4.2
144 | A20G U33C C87U A89G U151G | ≤ -4.2

Row | Variant | polymerase ribozyme fitness (log ratio)
145 | A21C A24G A39G C54U U78G G94A C129G U134G G140U U145G | ≤ -4.2
146 | A20U C63A G84U C87U | -3.3
147 | A20G U56G G117C | -0.934
148 | A20U A29U C43U A47G A49C C54G C95U C105A U145G A147G | ≤ -4.2
149 | A20U U61A C72A C75U C93G C99A C131G | ≤ -4.2
150 | A20G G80A U82G C95U | -1.15
151 | A20U A30G U53A U55G C63G G141U | ≤ -4.2
152 | A20G A22U C93G | -4.09
153 | A20G C54U A60U C85A | -3.42
154 | A21C A24G C38U G83A C99U | ≤ -4.2
155 | A20U C57U G59U G62U C76U C96G A147G | ≤ -4.2
156 | A20C U61G G112C | ≤ -4.2
157 | A20U G92A A121U G141C | -4.03
158 | A20U U56A C76U G133A | ≤ -4.2
159 | A20U A40C U55A A73U | -3.94
160 | A20G A29U C51G C87G | ≤ -4.2
161 | A20U A39C G48A G94A | ≤ -4.2
162 | A20U U82A C93U U145G | -2.69
163 | A20C G34A A47G U104G U130G A150G | ≤ -4.2
164 | A20U G50A A89U A91G | ≤ -4.2
165 | A20U A41U G83U A89C C96G A150U | -2.06
166 | A20G A21C C93A A97G | -3.83
167 | A20C G48U G83U | -2.07
